Source: publication PMC5538626, “Structural and functional analysis of the GABARAP interaction motif (GIM)” (EMBO Reports, 2017)

Target: LC3B (for ITC and NMR) (human), Q9GZQ8
Experiment: ITC; peptide 0.4 mM titrated into 0.020 mM LC3/GABARAP protein in 26 steps, 25°C; 50 mM Na2HPO4, 100 mM NaCl, pH 7.0; one-site model

| Ka | Kd | dH | Binder |
| --- | --- | --- | --- |
| 10000 M⁻¹ | > 100 µM | -1.7 kcal/mol | PQQEDEWGNVQYPD (modifications not checked) [PLEKHM1‐LIR V636G peptide (ITC), Q9Y4G2 629-642] |
| 10000 M⁻¹ | > 100 µM | -0.8 kcal/mol | PQQEDEAVNVQYPD (modifications not checked) [PLEKHM1‐LIR W635A peptide (ITC), Q9Y4G2 629-642] |
